Measurements: publication PMC7190724, “Improved GPCR ligands from nanobody tethering” (Nature Communications, 2020)

How the values were obtained:
[1] = molecular target: each of the PTHR1 receptor constructs that retained the ECD; assay: flow cytometry on cells; dose response of staining with VHH-Alexafluor647 (median fluorescent intensity); cells in PBS, 1 h on ice; curves without plateau constrained to the plateau seen with other VHHs
PTHR1_(YFPΔECD) = assay: as above

B1: VHH_(PTHR) (VHH)
VHH: EVQLVESGGGLVQAGGSLRLSCAASGNIFANNIMGWYRQPPGKEREFVAHVSHDGDSMYAVSVKGRFAISRKDATNLYLQMNSLKPEDTAIYFCRLLNIPTQGRMEGFWGQGTQVTVSS
**Q.** With B1 as the binder, how does the EC50 [1] read?
**A.** 100 to 200 nM

B2: VHHGFP (VHH)
VHH: QVQLQESGGALVQPGGSLRLSCAASGFPVNRYSMRWYRQAPGKEREWVAGMSSAGDRSSYEDSVKGRFTISRDDARNTVYLQMNSLKPEDTAVYYCNVNVGFEYWGQGTQVTVSS
**Q.** Which EC50 (PTHR1_(YFPΔECD)) does the source give for B2 here?
**A.** < 10 nM
